Experiments:
[1] = target: T1, 10E8-GT12 (synthetic construct; HIV-1 MPER helix …, N-linked glycan density at N74/75); assay: SPR; settings: both partners purified
T1 construct: also called MPER-GT immunogen
T1 chain: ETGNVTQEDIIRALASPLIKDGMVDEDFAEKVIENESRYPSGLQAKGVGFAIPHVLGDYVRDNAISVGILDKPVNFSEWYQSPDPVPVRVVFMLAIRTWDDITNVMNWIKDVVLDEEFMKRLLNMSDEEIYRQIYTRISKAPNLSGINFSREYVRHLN

[2] = target: T2, 10E8-GT10.2 (synthetic construct; HIV-1 MPER helix …, N-linked glycan density at N74/75); assay: SPR; settings: both partners purified
T2 construct: also called MPER-GT immunogen
T2 chain: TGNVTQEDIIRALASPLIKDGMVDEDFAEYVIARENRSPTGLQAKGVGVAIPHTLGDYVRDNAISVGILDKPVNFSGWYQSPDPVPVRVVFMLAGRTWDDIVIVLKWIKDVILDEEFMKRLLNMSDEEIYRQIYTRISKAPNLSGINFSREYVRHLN

B1: SA2102_10E8-like_2911_Fab (Fab, V domains shown)
VH: QVQLKQSGPGLVQPSQSLSITCTVSGFSLTSYGVHWVRQSPGKGLEWLGVIWSGGSTDYNAAFISRLSISKDNSKSQVFFKMNSLQADDTAIYYCARAPPYYDFWSGYSYYYYYMDVWGKGTTVTV
VL: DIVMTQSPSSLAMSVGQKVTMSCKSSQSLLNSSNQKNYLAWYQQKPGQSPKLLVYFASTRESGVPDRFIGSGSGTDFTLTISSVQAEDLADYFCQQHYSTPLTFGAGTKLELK
notes: also called SA2911; source: FreeStyle 293F cells, transfected, purified
B1 was tested, and the Kd [1] was 0.534 µM and the Kd [2] was 0.787 µM.

B2: NHP-10E8_MPER-GT10v55_W3-05 (Fab, V domains shown)
VH: EVQLVESGGGLVQPGGSLRLSCAASGFTFSNYWMSWVRQAPGKGLEWVGFIKNKADGGTAAYAESVKGRFTISRDDSKNTLYLQMNSLKTEDTAVYYCARDLGRYNFWSGFYSQNRFDVWGPGVLVTVSS
VL: SYEVTQPPSVSVSPGQMARITCGGDNLGSKYVHWYQQKPAQAPVLVIYDDSERPSGIPERFSGSKSGNTATLTISGVEAGDEADYYCQVWDSSSDHPLFGGGTRLTVL
notes: source: FreeStyle 293F cells, transfected, purified
With B2 the Kd [1] was 0.49 µM and the Kd [2] was 0.019 µM.

B3: SA684_Exp1_Scaf_MPER-GT10v55_W6-03 (Fab, V domains shown)
VH: DVQLQESGPGLVKPSQSLSLTCSVTGYSITSGYYWNWIRQFPGNKLEWMGYISYDGSNNYNPSLKNRISITRDTSQNQFFLKLNSVTTEDTASYYCAREGPYYDFWSGYYAYYMDVWGKGTTVTVSS
VL: DIVMSQSPSSLAVSVGEKVTMSCKSSQSLLYSSNQKNYLAWYQQKPGQSPKLLIYWASTRKSGVPDRFTGSGSGTDFTLTISSVKAEDLAVYYCQQYFGYPLTFGAGTKLELK
notes: as for B2
B3 showed a Kd [1] of 0.0085 µM and a Kd [2] of 0.009 µM.

B4: NHP-10E8_MPER-GT10v55_W3-02 (Fab, V domains shown)
VH: EVQLVESGGGLVQPGGSLKLSCAASGFTFSDHYMDWVRQAPGKGLEWVSSVSSGSGSATLYPDSVKGRFTISRDNAKNTVYLQMNSLRAEDTAVYYCARRGLYYDFWSGYSDFYYGLDSWGQGVVVTVSS
VL: DIVMTQTPLSLPITPGEPASISCRSSQSLLQSNGNTYLHWYLQKPGQSPQLLIYGGSNRASGVPDRFSGSGSGTDFTLKISKVEAEDVGVYYCVQAIAFPFTFGPGTKLDIK
notes: as for B2
Work on B4 yielded a Kd [1] of 3.4 µM and a Kd [2] of 0.0075 µM.

B5: SA684_Exp1_Scaf_MPER-GT12v56_W6-10 (Fab, V domains shown)
VH: QVTLKESGPGILQPSQTLSLTCSFSGFSLSTFGMGVGWIRQPSGKGLEWLAHIWWDDDKFYNPALKSRLTISKDTSKNQVFLKIANVDTADTATYYCARIGEDYFLDVWGKGTTVTVSS
VL: DIQMTQSPASLSASVGETVTITCRASGNIHNYLAWYQQKQGKSPQLLVYNAKTLADGVPSRFSGSGSGTQYSLKINSLQPEDFGSYYCQHFWSAPYTFGGGTNLEIK
notes: also called off-target mouse Fab W6-10; source: FreeStyle 293F cells, transfected, purified
B5 was tested, and the Kd [1] was 0.0018 µM and the Kd [2] was 0.003 µM.

— doi:10.1101/2025.08.19.671101 (bioRxiv, 2025)
